Patent US20250186604A1 (ADC THERAPEUTICS, published 2025)

Biological target: T1, Human PSMA (Prostate-Specific Membrane Antigen) (human, UniProt Q04609 44-750, limits assumed)
T1 construct: Coated on a 96 well plate at 3 ug/ml
Assay: ELISA, human PSMA coated on plate, anti-human-IgG-HRP detection
Experimental: Human PSMA was coated on a 96 well plate at 3 μg/ml for at least two hours at room temperature. The plate was washed with wash buffer (0.05% Tween-20 in PBS), then blocked with blocking buffer (3% BSA in PBS) washed again using wash buffer. After which antibodies were titrated from 66.6 nM to 0.013 nM and added to the plate and incubated at room temperature for one hour, after which the plate was washed and anti-human-IgG-HRP added, the plate was incubated for a further 1 hour at room temperature, before being washed and TMB detection reagent added, the reaction was stopped by the addition of 1M HCl to the wells, after which the plate was read at 450 nm using the SpectraMax plate reader.

T1 sequence (Q04609 44-750 limits assumed): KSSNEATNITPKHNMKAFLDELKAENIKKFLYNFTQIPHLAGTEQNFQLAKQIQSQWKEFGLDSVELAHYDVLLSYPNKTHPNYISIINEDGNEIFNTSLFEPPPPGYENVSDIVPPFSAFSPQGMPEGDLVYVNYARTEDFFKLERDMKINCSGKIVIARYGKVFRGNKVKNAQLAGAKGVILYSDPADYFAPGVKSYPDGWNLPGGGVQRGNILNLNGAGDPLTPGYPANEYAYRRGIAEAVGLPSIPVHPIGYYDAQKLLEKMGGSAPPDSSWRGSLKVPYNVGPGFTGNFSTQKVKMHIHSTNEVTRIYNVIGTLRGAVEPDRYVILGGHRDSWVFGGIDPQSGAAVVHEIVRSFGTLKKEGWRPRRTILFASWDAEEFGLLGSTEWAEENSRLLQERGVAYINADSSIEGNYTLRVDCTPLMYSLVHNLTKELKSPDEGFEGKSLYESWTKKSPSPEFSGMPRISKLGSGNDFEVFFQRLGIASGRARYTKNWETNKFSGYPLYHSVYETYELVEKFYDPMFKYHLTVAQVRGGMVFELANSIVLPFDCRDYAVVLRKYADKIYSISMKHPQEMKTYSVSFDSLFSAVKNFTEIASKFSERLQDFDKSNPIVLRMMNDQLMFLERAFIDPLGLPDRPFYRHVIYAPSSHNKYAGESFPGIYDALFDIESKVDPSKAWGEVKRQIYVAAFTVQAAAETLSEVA

B1: J415 (antibody, V domains shown)
VH: EVKLEESGGGLVQPGGSMKLSCVASGFTFSNYWMNWVRQSPEKGLEWVAEIRSQSNNFATHYAESVKGRVIISRDDSKSSVYLQMNNLRAEDTGIYYCTRRWNNFWGQGTTLTVSS
VL: NIVMTQFPKSMSISVGERVTLTCKASENVGTYVSWYQQKPEQSPKMLIYGASNRFTGVPDRFTGSGSATDFILTISSVQTEDLVDYYCGQSYTFPYTFGGGTKLEMK
With B1 the EC50 was 24.8 nM.

B2: D2B (antibody, V domains shown)
VH: EVKLQESGPGLVKPSQSLSLTCSVTGYSITSGYYWNWIRQFPGNKLEWMGSISFDGNNNYNPSLRNRISITRDTSKNQFFLKLNSVTTEDTATYYCAREGDYYGSSFFTYWGQGTLVTVS
VL: DIVMTQSPASLSASVGETVTLTCGASENIYGALNWYQRKQGKSPQLLIYGATNLADGMSSRFSGSGSGRQYSLKISSLHPDDVATYYCQNVFRTYTFGGGTKLEIKR
In the case of B2, the EC50 is reported as 0.173 nM.

B3: MDX 2A10 (antibody, human IgG1, kappa, V domains shown)
VH: EVQLVQSGAEVKKPGESLKISCKGSGYSFTSNWIGWVRQMPGKGLEWMGIIYPGDSDTRYSPSFQGQVTISADKSISTAYLQWSSLKASDTAMYYCARQTGFLWSSDLWGRGTLVTVSS
VL: AIQLTQSPSSLSASVGDRVTITCRASQDISSALAWYQQKPGKAPKLLIYDASSLESGVPSRFSGYGSGTDFTLTINSLQPEDFATYYCQQFNSYPLTFGGGTKVEIKR
notes: also called antibody 2A10
Binder B3 has an EC50 of 0.115 nM.
